From patent publication JPH07265077A (dated 1995)

Target: T1, Hemagglutinin (HA) of human influenza A virus A2/Aichi/2/68 (H3N2サブタイプ) (human influenza A virus A2/Aichi/2/68 …, UniProt P03437 17-566)
T1 construct: whole, on cells; also called A/Aichi/2/68; A2/Aichi/2/68

B1: モノクローナル抗体C179 (monoclonal antibody C179) (antibody, V domains shown)
VH: EVKLVESGGGLVQPGGSLRLSCGTSGFTLTDDYMTWVRQPPGKALEWLGFIRDRANGYTTEYSASVKGRFTISRDNSQSIVYLQMNTLRVEDSATYYCARPKGYFPYAMDYWGQGT
VL: DIQMTQSPASQSASLGESVTITCLASQTIGTWLAWYQQKPGKSPQLLIYAATSLADGVPSRFSGSGSGTKFSFKISSLQAEDFVSYYCQQLYSTPWTF
notes: also called antibody of Hybridoma C179 (FERM BP-4517)
binding result: no binding
